These results are taken from US20210094998A1.

Some results are limits rather than exact numbers.

What all share (assay): cell-based or functional assay
In assay [1] the target is CRHR1.
Assay [2] addresses CRHR2.
Assay [3] deals with mouse GLP1 receptor (mouse) (UniProt O35659).
Assay [4] addresses rat glucagon receptor (rat) (UniProt P30082).
For assay [5], the target named is mouse glucagon receptor (mouse) (UniProt Q61606).
Assay [6] deals with human GLP1 receptor (human) (UniProt P43220).
Assay [7] deals with human glucagon receptor (human) (UniProt P47871).
The target in assay [8] is cynomolgus monkey GLP1 receptor (cynomolgus monkey) (UniProt F8V479).
Assay [9] addresses cynomolgus monkey glucagon receptor (cynomolgus monkey).
In assay [10] the target is rhesus monkey Y2 receptor (rhesus monkey) (UniProt Q9GK74).
The target in assay [11] is human Y1 receptor (human) (UniProt P25929).
For assay [12], the target named is rat Y2 receptor (rat).
The target in assay [13] is mouse Y2 receptor (mouse) (UniProt P97295).
Chain of mouse Y2 receptor (mouse) (P97295 whole entry): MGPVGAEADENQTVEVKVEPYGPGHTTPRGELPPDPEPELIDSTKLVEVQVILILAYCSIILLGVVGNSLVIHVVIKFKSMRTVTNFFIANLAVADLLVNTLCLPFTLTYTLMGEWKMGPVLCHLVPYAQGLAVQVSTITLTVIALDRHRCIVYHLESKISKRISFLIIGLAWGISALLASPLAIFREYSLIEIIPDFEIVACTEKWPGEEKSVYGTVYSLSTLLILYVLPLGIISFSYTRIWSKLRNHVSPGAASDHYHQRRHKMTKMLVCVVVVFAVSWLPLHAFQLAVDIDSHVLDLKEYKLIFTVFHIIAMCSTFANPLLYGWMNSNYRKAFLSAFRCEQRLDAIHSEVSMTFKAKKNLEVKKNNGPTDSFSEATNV

Chain of rat glucagon receptor (rat) (P30082 27-485): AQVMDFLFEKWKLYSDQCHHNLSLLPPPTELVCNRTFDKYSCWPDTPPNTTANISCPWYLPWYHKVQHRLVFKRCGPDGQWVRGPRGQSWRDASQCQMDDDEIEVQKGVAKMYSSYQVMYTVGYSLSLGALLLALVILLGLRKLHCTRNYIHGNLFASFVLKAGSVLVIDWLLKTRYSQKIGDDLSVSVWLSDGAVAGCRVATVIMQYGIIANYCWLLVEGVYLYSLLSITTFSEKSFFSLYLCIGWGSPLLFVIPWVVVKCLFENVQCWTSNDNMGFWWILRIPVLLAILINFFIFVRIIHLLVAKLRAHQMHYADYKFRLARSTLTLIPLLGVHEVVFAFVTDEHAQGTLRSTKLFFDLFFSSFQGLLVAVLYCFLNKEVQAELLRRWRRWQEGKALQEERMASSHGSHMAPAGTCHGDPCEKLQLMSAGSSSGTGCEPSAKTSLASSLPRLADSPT
Chain of mouse glucagon receptor (mouse) (Q61606 27-485): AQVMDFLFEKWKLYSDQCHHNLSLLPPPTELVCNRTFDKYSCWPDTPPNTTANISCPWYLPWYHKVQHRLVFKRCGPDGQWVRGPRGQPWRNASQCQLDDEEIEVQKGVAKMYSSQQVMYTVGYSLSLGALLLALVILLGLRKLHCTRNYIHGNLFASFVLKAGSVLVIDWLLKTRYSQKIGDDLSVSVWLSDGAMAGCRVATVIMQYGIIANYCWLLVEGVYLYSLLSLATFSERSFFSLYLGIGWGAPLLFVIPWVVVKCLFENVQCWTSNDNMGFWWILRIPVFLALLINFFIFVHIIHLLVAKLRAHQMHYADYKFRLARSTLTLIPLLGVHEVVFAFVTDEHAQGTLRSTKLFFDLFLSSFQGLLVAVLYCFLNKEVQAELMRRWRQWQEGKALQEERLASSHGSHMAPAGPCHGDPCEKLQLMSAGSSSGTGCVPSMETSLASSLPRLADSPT
Chain of human GLP1 receptor (human) (P43220 24-463): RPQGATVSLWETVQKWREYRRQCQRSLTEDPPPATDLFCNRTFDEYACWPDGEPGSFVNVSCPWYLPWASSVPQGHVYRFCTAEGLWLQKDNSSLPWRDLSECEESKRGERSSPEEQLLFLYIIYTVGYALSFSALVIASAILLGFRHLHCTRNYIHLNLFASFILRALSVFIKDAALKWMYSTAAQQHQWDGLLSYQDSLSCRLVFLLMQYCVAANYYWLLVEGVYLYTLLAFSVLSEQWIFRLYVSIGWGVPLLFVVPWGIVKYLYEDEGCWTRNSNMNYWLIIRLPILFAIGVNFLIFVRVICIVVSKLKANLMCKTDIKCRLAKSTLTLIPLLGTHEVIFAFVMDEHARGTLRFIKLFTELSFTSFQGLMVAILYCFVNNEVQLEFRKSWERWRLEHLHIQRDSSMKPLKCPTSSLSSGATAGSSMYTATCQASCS
Chain of human glucagon receptor (human) (P47871 26-477): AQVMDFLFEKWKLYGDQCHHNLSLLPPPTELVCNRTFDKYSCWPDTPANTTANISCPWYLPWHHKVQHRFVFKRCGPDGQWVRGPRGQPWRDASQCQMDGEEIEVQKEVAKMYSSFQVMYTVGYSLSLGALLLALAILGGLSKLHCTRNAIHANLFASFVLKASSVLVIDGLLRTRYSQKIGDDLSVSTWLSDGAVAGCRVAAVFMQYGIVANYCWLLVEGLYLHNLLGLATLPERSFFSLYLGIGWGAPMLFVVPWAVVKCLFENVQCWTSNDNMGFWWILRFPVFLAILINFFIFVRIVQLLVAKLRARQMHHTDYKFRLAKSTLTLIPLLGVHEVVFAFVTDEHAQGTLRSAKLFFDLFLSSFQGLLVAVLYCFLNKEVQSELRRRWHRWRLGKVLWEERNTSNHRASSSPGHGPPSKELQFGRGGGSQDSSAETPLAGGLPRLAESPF
Chain of human Y1 receptor (human) (P25929 whole entry): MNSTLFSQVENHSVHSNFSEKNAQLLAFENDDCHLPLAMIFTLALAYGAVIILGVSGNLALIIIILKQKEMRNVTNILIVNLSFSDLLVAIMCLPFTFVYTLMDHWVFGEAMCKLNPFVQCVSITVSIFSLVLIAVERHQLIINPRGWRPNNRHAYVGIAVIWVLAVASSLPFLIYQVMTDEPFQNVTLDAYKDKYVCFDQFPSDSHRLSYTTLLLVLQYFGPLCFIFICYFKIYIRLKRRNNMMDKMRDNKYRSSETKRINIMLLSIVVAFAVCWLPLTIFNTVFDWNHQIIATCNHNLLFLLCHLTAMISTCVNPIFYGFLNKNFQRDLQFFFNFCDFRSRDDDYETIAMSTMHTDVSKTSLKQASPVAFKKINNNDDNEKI
Chain of rhesus monkey Y2 receptor (rhesus monkey) (Q9GK74 whole entry): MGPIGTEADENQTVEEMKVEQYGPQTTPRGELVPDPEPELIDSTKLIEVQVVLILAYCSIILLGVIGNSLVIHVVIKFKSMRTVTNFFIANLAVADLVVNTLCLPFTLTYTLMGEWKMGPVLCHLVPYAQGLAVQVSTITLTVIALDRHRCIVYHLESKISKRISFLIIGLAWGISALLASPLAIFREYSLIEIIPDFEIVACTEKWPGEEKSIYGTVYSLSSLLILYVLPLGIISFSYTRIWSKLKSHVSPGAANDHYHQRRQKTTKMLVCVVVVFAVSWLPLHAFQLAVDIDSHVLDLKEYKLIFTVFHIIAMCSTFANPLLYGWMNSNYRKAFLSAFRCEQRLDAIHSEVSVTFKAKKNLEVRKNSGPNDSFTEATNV
Chain of mouse GLP1 receptor (mouse) (O35659 22-463): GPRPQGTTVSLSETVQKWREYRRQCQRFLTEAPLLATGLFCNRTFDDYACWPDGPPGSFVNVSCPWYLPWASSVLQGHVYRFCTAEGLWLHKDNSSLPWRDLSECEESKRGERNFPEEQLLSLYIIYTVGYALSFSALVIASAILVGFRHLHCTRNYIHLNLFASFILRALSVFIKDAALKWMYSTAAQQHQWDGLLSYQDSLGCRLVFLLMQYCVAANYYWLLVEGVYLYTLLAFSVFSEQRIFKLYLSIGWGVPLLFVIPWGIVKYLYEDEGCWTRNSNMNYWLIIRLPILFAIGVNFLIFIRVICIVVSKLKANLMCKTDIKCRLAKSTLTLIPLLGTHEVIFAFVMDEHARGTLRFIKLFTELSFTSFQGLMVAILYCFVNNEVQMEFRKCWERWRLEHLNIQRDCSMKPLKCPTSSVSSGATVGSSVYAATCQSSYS

In the case of “Sauvagine (from UniProt P01144 1-40) (peptide)”, the RC50, cAMP assay in [1] turned out to be 0.000308 µM; in [2] it was 0.0034 µM.

For the substance Ser-8 GLP1 (peptide), the EC50, receptor cAMP assay was 0.06 nM in assay [3]; over 100 nM in [4]; over 100 nM in [5]; 0.07 nM in [6]; over 100 nM in assay [7]; 0.08 nM in assay [8]. The EC50, receptor cAMP assay in assay [9] is over 100 nM.

Take “Sauvagine (from UniProt P01144 1-40) (peptide; unit assumed)”: the Max response, cAMP assay stood at 106% in assay [1] and 107% in assay [2].

For the substance PYY3-36 (peptide), the EC50, cAMP assay (LANCE) on receptor-expressing cells in [10] is 0.06 nM; in assay [11], 66.4 nM; in [12] it was 0.5 nM; in [13] it was 0.03 nM.
